Reference: US20220401544A1

Tests used:
[1] = biological target: N. meningitidis serogroup B factor H binding protein (FHbp, LP2086) variant B15 (Neisseria meningitidis serogroup B) (UniProt E6MV22); assay: MEASURE flow cytometry, median over MenB isolates expressing B15
[2] = biological target: N. meningitidis serogroup B factor H binding protein (FHbp, LP2086) variant B03 (Neisseria meningitidis serogroup B) (UniProt E6MV22); assay: MEASURE flow cytometry, median over MenB isolates expressing B03
[3] = biological target: N. meningitidis serogroup B factor H binding protein (FHbp, LP2086) variant B24 (Neisseria meningitidis serogroup B) (UniProt E6MV22)
[4] = biological target: N. meningitidis serogroup B factor H binding protein (FHbp, LP2086) variant A15 (Neisseria meningitidis serogroup B)
[5] = biological target: N. meningitidis serogroup B factor H binding protein (FHbp, LP2086) variant A22 (Neisseria meningitidis serogroup B)
[6] = biological target: N. meningitidis serogroup B factor H binding protein (FHbp, LP2086) variant A06 (Neisseria meningitidis serogroup B)
[7] = biological target: N. meningitidis serogroup B factor H binding protein (FHbp, LP2086) variant A29 (Neisseria meningitidis serogroup B)
[8] = biological target: N. meningitidis serogroup B factor H binding protein (FHbp, LP2086) variant A07 (Neisseria meningitidis serogroup B)
[9] = biological target: N. meningitidis serogroup B factor H binding protein (FHbp, LP2086) variant A19 (Neisseria meningitidis serogroup B)
[10] = biological target: N. meningitidis serogroup B factor H binding protein (FHbp, LP2086) variant B09 (Neisseria meningitidis serogroup B) (UniProt E6MV22)
[11] = biological target: N. meningitidis serogroup B factor H binding protein (FHbp, LP2086) variant A12 (Neisseria meningitidis serogroup B)
[12] = biological target: N. meningitidis serogroup B factor H binding protein (FHbp, LP2086) variant B16 (Neisseria meningitidis serogroup B) (UniProt E6MV22)
[13] = biological target: N. meningitidis serogroup B factor H binding protein (FHbp, LP2086) variant B44 (Neisseria meningitidis serogroup B)
[14] = biological target: N. meningitidis serogroup B factor H binding protein (FHbp, LP2086) variant A56 (Neisseria meningitidis serogroup B)
[15] = biological target: N. meningitidis serogroup B factor H binding protein (FHbp, LP2086) variant B03 (Neisseria meningitidis serogroup B) (UniProt E6MV22)
[16] = biological target: N. meningitidis serogroup B factor H binding protein (FHbp, LP2086) variant B15 (Neisseria meningitidis serogroup B) (UniProt E6MV22)
[17] = biological target: N. meningitidis serogroup B factor H binding protein (FHbp, LP2086) variant A22 (Neisseria meningitidis serogroup B); assay: MEASURE flow cytometry, median over MenB isolates expressing A22
[18] = biological target: N. meningitidis serogroup B factor H binding protein (FHbp, LP2086) variant B24 (Neisseria meningitidis serogroup B) (UniProt E6MV22); assay: MEASURE flow cytometry, median over MenB isolates expressing B24
[19] = biological target: N. meningitidis serogroup B factor H binding protein (FHbp, LP2086) variant A29 (Neisseria meningitidis serogroup B); assay: MEASURE flow cytometry, median over MenB isolates expressing A29
[20] = biological target: N. meningitidis serogroup B factor H binding protein (FHbp, LP2086) variant B16 (Neisseria meningitidis serogroup B) (UniProt E6MV22); assay: MEASURE flow cytometry, median over MenB isolates expressing B16
[21] = biological target: N. meningitidis factor H binding protein (fHBP) variant A10 (Neisseria meningitidis serogroup B)
[22] = biological target: N. meningitidis serogroup B factor H binding protein (fHBP) variant A40 (Neisseria meningitidis serogroup B)
[23] = biological target: N. meningitidis serogroup B factor H binding protein (fHBP) variant A08 (Neisseria meningitidis serogroup B)
[24] = biological target: N. meningitidis serogroup B factor H binding protein (fHBP) variant B10 (Neisseria meningitidis serogroup B)
[25] = biological target: N. meningitidis serogroup B factor H binding protein (fHBP) variant B91 (Neisseria meningitidis serogroup B)
[26] = biological target: N. meningitidis serogroup B factor H binding protein (fHBP) variant A20 (Neisseria meningitidis serogroup B)
[27] = biological target: N. meningitidis serogroup B factor H binding protein (fHBP) variant A52 (Neisseria meningitidis serogroup B)
[28] = biological target: N. meningitidis serogroup B factor H binding protein (FHbp, LP2086) variant B44 (Neisseria meningitidis serogroup B); assay: MEASURE flow cytometry, median over MenB isolates expressing B44
[29] = biological target: N. meningitidis serogroup B factor H binding protein (FHbp, LP2086) variant B09 (Neisseria meningitidis serogroup B) (UniProt E6MV22); assay: MEASURE flow cytometry, median over MenB isolates expressing B09
[30] = biological target: N. meningitidis serogroup B factor H binding protein (FHbp, LP2086) variant A19 (Neisseria meningitidis serogroup B); assay: MEASURE flow cytometry, median over MenB isolates expressing A19
[31] = biological target: N. meningitidis serogroup B factor H binding protein (FHbp, LP2086) variant A12 (Neisseria meningitidis serogroup B); assay: MEASURE flow cytometry, median over MenB isolates expressing A12
[32] = biological target: N. meningitidis serogroup B factor H binding protein (FHbp, LP2086) variant A06 (Neisseria meningitidis serogroup B); assay: MEASURE flow cytometry, median over MenB isolates expressing A06
[33] = biological target: N. meningitidis serogroup B factor H binding protein (FHbp, LP2086) variant A15 (Neisseria meningitidis serogroup B); assay: MEASURE flow cytometry, median over MenB isolates expressing A15
[34] = biological target: N. meningitidis serogroup B factor H binding protein (FHbp, LP2086) variant A56 (Neisseria meningitidis serogroup B); assay: MEASURE flow cytometry, variant group A56 (only one strain)
[35] = biological target: N. meningitidis serogroup B factor H binding protein (fHBP, LP2086) variant A42 (Neisseria meningitidis serogroup B)
[36] = biological target: N. meningitidis serogroup B factor H binding protein (fHBP, LP2086) variant B52 (Neisseria meningitidis serogroup B) (UniProt E6MV22)
[37] = biological target: N. meningitidis serogroup B factor H binding protein (fHBP, LP2086) variant A02 (Neisseria meningitidis serogroup B)
[38] = biological target: N. meningitidis serogroup B factor H binding protein (fHBP, LP2086) variant A76 (Neisseria meningitidis serogroup B)
[39] = biological target: N. meningitidis serogroup B factor H binding protein (fHBP, LP2086) variant A28 (Neisseria meningitidis serogroup B)
[40] = biological target: N. meningitidis serogroup B factor H binding protein (fHBP, LP2086) variant B107 (Neisseria meningitidis serogroup B)
[41] = biological target: N. meningitidis serogroup B factor H binding protein (fHBP, LP2086) variant A63 (Neisseria meningitidis serogroup B)
[42] = biological target: N. meningitidis serogroup B factor H binding protein (fHBP, LP2086) variant B07 (Neisseria meningitidis serogroup B) (UniProt E6MV22)
[43] = biological target: N. meningitidis serogroup B factor H binding protein (fHBP, LP2086) variant B05 (Neisseria meningitidis serogroup B) (UniProt E6MV22)
[44] = biological target: N. meningitidis serogroup B factor H binding protein (fHBP, LP2086) variant B08 (Neisseria meningitidis serogroup B) (UniProt E6MV22)
[45] = biological target: N. meningitidis serogroup B factor H binding protein (fHBP, LP2086) variant B13 (Neisseria meningitidis serogroup B) (UniProt E6MV22)

## monoclonal antibody MN86-994-11
[1]
  FHbp Variant Group MEASURE MFI Median: 4820 MFI
[2]
  FHbp Variant Group MEASURE MFI Median: 2940 MFI
[3]
  Strain MEASURE MFI: 6970 MFI
[4]
  Strain MEASURE MFI: 3000 MFI
[5]
  Strain MEASURE MFI: 3130 MFI
[6]
  Strain MEASURE MFI: 3370 MFI
[7]
  Strain MEASURE MFI: 3840 MFI
[8]
  FHbp Variant Group MEASURE MFI Median: 1100 MFI
  Strain MEASURE MFI: 1380 MFI
[9]
  Strain MEASURE MFI: 1930 MFI
[10]
  Strain MEASURE MFI: 2090 MFI
[11]
  Strain MEASURE MFI: 2540 MFI
[12]
  Strain MEASURE MFI: 2350 MFI
[13]
  Strain MEASURE MFI: 11300 MFI
[14]
  Strain MEASURE MFI: 5000 MFI
[15]
  Strain MEASURE MFI: 3980 MFI
[16]
  Strain MEASURE MFI: 3780 MFI
[17]
  FHbp Variant Group MEASURE MFI Median: 2500 MFI
[18]
  FHbp Variant Group MEASURE MFI Median: 8460 MFI
[19]
  FHbp Variant Group MEASURE MFI Median: 5990 MFI
[20]
  FHbp Variant Group MEASURE MFI Median: 2000 MFI
[21]
  fHBP Expression (MFI): < 1000 MFI
[22]
  fHBP Expression (MFI): < 1000 MFI
[23]
  fHBP Expression (MFI): < 1000 MFI
[24]
  fHBP Expression (MFI): < 1000 MFI
[25]
  fHBP Expression (MFI): < 1000 MFI
[26]
  fHBP Expression (MFI): < 1000 MFI
[27]
  fHBP Expression (MFI): < 1000 MFI
[28]
  FHbp Variant Group MEASURE MFI Median: 14800 MFI
[29]
  FHbp Variant Group MEASURE MFI Median: 2280 MFI
[30]
  FHbp Variant Group MEASURE MFI Median: 1760 MFI
[31]
  FHbp Variant Group MEASURE MFI Median: 2470 MFI
[32]
  FHbp Variant Group MEASURE MFI Median: 3090 MFI
[33]
  FHbp Variant Group MEASURE MFI Median: 2900 MFI
[34]
  FHbp Variant Group MEASURE MFI Median: 5000 MFI
[35]
  fHBP Expression (MFI): 1610 MFI
[36]
  fHBP Expression (MFI): 8730 MFI
[37]
  fHBP Expression (MFI): 13200 MFI
[38]
  fHBP Expression (MFI): 11300 MFI
[39]
  fHBP Expression (MFI): 4190 MFI
[40]
  fHBP Expression (MFI): 11100 MFI
[41]
  fHBP Expression (MFI): 10800 MFI
[42]
  fHBP Expression (MFI): 1350 MFI
[43]
  fHBP Expression (MFI): 2920 MFI
[44]
  fHBP Expression (MFI): 1560 MFI
[45]
  fHBP Expression (MFI): 1850 MFI
